Assay [1] addresses binding partner of C5A (XPA23). Put plainly: Biacore.
For assay [2], the target named is binding partner of C5A (XPA23). Put plainly: Biacore, K-off. For orientation: Surface plasmon resonance follows binding to a sensor surface in real time, without labels.

B1: C5A (XPA23) VH F35T (antibody, V domains shown)
VH: EVQLLESGGGLVQPGGSLRLSCAASGFTFSKYFMTWVRQAPGKGLEWVSVISPSGGMTRYADSVKGRFTISRDNSKNTLYLQMNSLRAEDTAVYYCARVGYGGNSDYWGQGTLVTVSS
VL: DIQMTQSPSSVSASVGDRLTIICRASQDINRWLAWYQQTPGNAPKLLIHSATSLQSGVPSRFSGSGSGTDFTLTINSLQPEDFATYYCQQADSFPLTFGGGTKVEIK
As to B1, the fold difference in affinity vs original in assay [1] and in assay [2] was 0.74 fold in each case.

B2: C5A (XPA23) VH P53S (antibody, V domains shown)
VH: EVQLLESGGGLVQPGGSLRLSCAASGFTFSKYFMFWVRQAPGKGLEWVSVISSSGGMTRYADSVKGRFTISRDNSKNTLYLQMNSLRAEDTAVYYCARVGYGGNSDYWGQGTLVTVSS
VL: DIQMTQSPSSVSASVGDRLTIICRASQDINRWLAWYQQTPGNAPKLLIHSATSLQSGVPSRFSGSGSGTDFTLTINSLQPEDFATYYCQQADSFPLTFGGGTKVEIK
As for B2, in assay [1], the fold affinity vs original was 0.03 fold. Also, the fold difference in affinity vs original in assay [2] was found to be 0.03 fold.

B3: C5A (XPA23) VH P53E (antibody, V domains shown)
VH: EVQLLESGGGLVQPGGSLRLSCAASGFTFSKYFMFWVRQAPGKGLEWVSVISESGGMTRYADSVKGRFTISRDNSKNTLYLQMNSLRAEDTAVYYCARVGYGGNSDYWGQGTLVTVSS
VL: DIQMTQSPSSVSASVGDRLTIICRASQDINRWLAWYQQTPGNAPKLLIHSATSLQSGVPSRFSGSGSGTDFTLTINSLQPEDFATYYCQQADSFPLTFGGGTKVEIK
Turning to B3, the fold affinity vs original in assay [1] worked out at 0.03 fold. For the same molecule, in assay [2], the fold difference in affinity vs original is 0.03 fold.

B4: C5A (XPA23) VH I51R (antibody, V domains shown)
VH: EVQLLESGGGLVQPGGSLRLSCAASGFTFSKYFMFWVRQAPGKGLEWVSVRSPSGGMTRYADSVKGRFTISRDNSKNTLYLQMNSLRAEDTAVYYCARVGYGGNSDYWGQGTLVTVSS
VL: DIQMTQSPSSVSASVGDRLTIICRASQDINRWLAWYQQTPGNAPKLLIHSATSLQSGVPSRFSGSGSGTDFTLTINSLQPEDFATYYCQQADSFPLTFGGGTKVEIK
In the case of B4, the fold affinity vs original in assay [1] is 0.1 fold. Also, the fold difference in affinity vs original in assay [2] turned out to be 0.1 fold.

B5: C5A (XPA23) VH I51H (antibody, V domains shown)
VH: EVQLLESGGGLVQPGGSLRLSCAASGFTFSKYFMFWVRQAPGKGLEWVSVHSPSGGMTRYADSVKGRFTISRDNSKNTLYLQMNSLRAEDTAVYYCARVGYGGNSDYWGQGTLVTVSS
VL: DIQMTQSPSSVSASVGDRLTIICRASQDINRWLAWYQQTPGNAPKLLIHSATSLQSGVPSRFSGSGSGTDFTLTINSLQPEDFATYYCQQADSFPLTFGGGTKVEIK
For B5, the fold affinity vs original in assay [1] amounted to 0.08 fold. Also, the fold difference in affinity vs original in assay [2] amounted to 0.08 fold.

B6: C5A (XPA23) VH V50N (antibody, V domains shown)
VH: EVQLLESGGGLVQPGGSLRLSCAASGFTFSKYFMFWVRQAPGKGLEWVSNISPSGGMTRYADSVKGRFTISRDNSKNTLYLQMNSLRAEDTAVYYCARVGYGGNSDYWGQGTLVTVSS
VL: DIQMTQSPSSVSASVGDRLTIICRASQDINRWLAWYQQTPGNAPKLLIHSATSLQSGVPSRFSGSGSGTDFTLTINSLQPEDFATYYCQQADSFPLTFGGGTKVEIK
In the case of B6, the fold affinity vs original in assay [1] stood at 0.03 fold. Further, the fold difference in affinity vs original in assay [2] was 0.03 fold.

B7: C5A (XPA23) VH I51S (antibody, V domains shown)
VH: EVQLLESGGGLVQPGGSLRLSCAASGFTFSKYFMFWVRQAPGKGLEWVSVSSPSGGMTRYADSVKGRFTISRDNSKNTLYLQMNSLRAEDTAVYYCARVGYGGNSDYWGQGTLVTVSS
VL: DIQMTQSPSSVSASVGDRLTIICRASQDINRWLAWYQQTPGNAPKLLIHSATSLQSGVPSRFSGSGSGTDFTLTINSLQPEDFATYYCQQADSFPLTFGGGTKVEIK
For B7, the fold affinity vs original in assay [1] came out at 0.69 fold. Also, the fold difference in affinity vs original in assay [2] is 0.69 fold.

B8: C5A (XPA23) VH I51D (antibody, V domains shown)
VH: EVQLLESGGGLVQPGGSLRLSCAASGFTFSKYFMFWVRQAPGKGLEWVSVDSPSGGMTRYADSVKGRFTISRDNSKNTLYLQMNSLRAEDTAVYYCARVGYGGNSDYWGQGTLVTVSS
VL: DIQMTQSPSSVSASVGDRLTIICRASQDINRWLAWYQQTPGNAPKLLIHSATSLQSGVPSRFSGSGSGTDFTLTINSLQPEDFATYYCQQADSFPLTFGGGTKVEIK
As for B8, the fold affinity vs original in assay [1] amounted to 0.07 fold. For the same molecule, in assay [2], the fold difference in affinity vs original came to 0.07 fold.

B9: C5A (XPA23) VH I51Y (antibody, V domains shown)
VH: EVQLLESGGGLVQPGGSLRLSCAASGFTFSKYFMFWVRQAPGKGLEWVSVYSPSGGMTRYADSVKGRFTISRDNSKNTLYLQMNSLRAEDTAVYYCARVGYGGNSDYWGQGTLVTVSS
VL: DIQMTQSPSSVSASVGDRLTIICRASQDINRWLAWYQQTPGNAPKLLIHSATSLQSGVPSRFSGSGSGTDFTLTINSLQPEDFATYYCQQADSFPLTFGGGTKVEIK
As for B9, the fold affinity vs original in assay [1] came out at 1.75 fold. Moreover, in assay [2], the fold difference in affinity vs original came to 1.75 fold.

B10: C5A (XPA23) VH I51N (antibody, V domains shown)
VH: EVQLLESGGGLVQPGGSLRLSCAASGFTFSKYFMFWVRQAPGKGLEWVSVNSPSGGMTRYADSVKGRFTISRDNSKNTLYLQMNSLRAEDTAVYYCARVGYGGNSDYWGQGTLVTVSS
VL: DIQMTQSPSSVSASVGDRLTIICRASQDINRWLAWYQQTPGNAPKLLIHSATSLQSGVPSRFSGSGSGTDFTLTINSLQPEDFATYYCQQADSFPLTFGGGTKVEIK
Take B10: the fold affinity vs original in assay [1] came out at 0.68 fold. In addition, the fold difference in affinity vs original in assay [2] amounted to 0.68 fold.

B11: C5A (XPA23) VH P53K (antibody, V domains shown)
VH: EVQLLESGGGLVQPGGSLRLSCAASGFTFSKYFMFWVRQAPGKGLEWVSVISKSGGMTRYADSVKGRFTISRDNSKNTLYLQMNSLRAEDTAVYYCARVGYGGNSDYWGQGTLVTVSS
VL: DIQMTQSPSSVSASVGDRLTIICRASQDINRWLAWYQQTPGNAPKLLIHSATSLQSGVPSRFSGSGSGTDFTLTINSLQPEDFATYYCQQADSFPLTFGGGTKVEIK
Turning to B11, the fold affinity vs original in assay [1] worked out at 0.04 fold. Further, the fold difference in affinity vs original in assay [2] was found to be 0.04 fold.

B12: C5A (XPA23) VH I51Q (antibody, V domains shown)
VH: EVQLLESGGGLVQPGGSLRLSCAASGFTFSKYFMFWVRQAPGKGLEWVSVQSPSGGMTRYADSVKGRFTISRDNSKNTLYLQMNSLRAEDTAVYYCARVGYGGNSDYWGQGTLVTVSS
VL: DIQMTQSPSSVSASVGDRLTIICRASQDINRWLAWYQQTPGNAPKLLIHSATSLQSGVPSRFSGSGSGTDFTLTINSLQPEDFATYYCQQADSFPLTFGGGTKVEIK
With B12, the fold affinity vs original in assay [1] came out at 0.83 fold. Moreover, in assay [2], the fold difference in affinity vs original turned out to be 0.83 fold.

B13: C5A (XPA23) VH F35N (antibody, V domains shown)
VH: EVQLLESGGGLVQPGGSLRLSCAASGFTFSKYFMNWVRQAPGKGLEWVSVISPSGGMTRYADSVKGRFTISRDNSKNTLYLQMNSLRAEDTAVYYCARVGYGGNSDYWGQGTLVTVSS
VL: DIQMTQSPSSVSASVGDRLTIICRASQDINRWLAWYQQTPGNAPKLLIHSATSLQSGVPSRFSGSGSGTDFTLTINSLQPEDFATYYCQQADSFPLTFGGGTKVEIK
On to B13, for which the fold affinity vs original in assay [1] was found to be 0.86 fold. For the same molecule, in assay [2], the fold difference in affinity vs original is 0.86 fold.

B14: C5A (XPA23) VH F35Y (antibody, V domains shown)
VH: EVQLLESGGGLVQPGGSLRLSCAASGFTFSKYFMYWVRQAPGKGLEWVSVISPSGGMTRYADSVKGRFTISRDNSKNTLYLQMNSLRAEDTAVYYCARVGYGGNSDYWGQGTLVTVSS
VL: DIQMTQSPSSVSASVGDRLTIICRASQDINRWLAWYQQTPGNAPKLLIHSATSLQSGVPSRFSGSGSGTDFTLTINSLQPEDFATYYCQQADSFPLTFGGGTKVEIK
As for B14, the fold affinity vs original in assay [1] is 0.85 fold. In assay [2], the fold difference in affinity vs original amounted to 0.85 fold.

B15: C5A (XPA23) VH I51E (antibody, V domains shown)
VH: EVQLLESGGGLVQPGGSLRLSCAASGFTFSKYFMFWVRQAPGKGLEWVSVESPSGGMTRYADSVKGRFTISRDNSKNTLYLQMNSLRAEDTAVYYCARVGYGGNSDYWGQGTLVTVSS
VL: DIQMTQSPSSVSASVGDRLTIICRASQDINRWLAWYQQTPGNAPKLLIHSATSLQSGVPSRFSGSGSGTDFTLTINSLQPEDFATYYCQQADSFPLTFGGGTKVEIK
B15: the fold affinity vs original in assay [1] worked out at 0.73 fold. For the same molecule, in assay [2], the fold difference in affinity vs original amounted to 0.73 fold.

B16: C5A (XPA23) VH I51K (antibody, V domains shown)
VH: EVQLLESGGGLVQPGGSLRLSCAASGFTFSKYFMFWVRQAPGKGLEWVSVKSPSGGMTRYADSVKGRFTISRDNSKNTLYLQMNSLRAEDTAVYYCARVGYGGNSDYWGQGTLVTVSS
VL: DIQMTQSPSSVSASVGDRLTIICRASQDINRWLAWYQQTPGNAPKLLIHSATSLQSGVPSRFSGSGSGTDFTLTINSLQPEDFATYYCQQADSFPLTFGGGTKVEIK
On to B16, for which, in assay [1], the fold affinity vs original came out at 0.11 fold. In assay [2], the fold difference in affinity vs original was found to be 0.11 fold.

B17: C5A (XPA23) VH I51T (antibody, V domains shown)
VH: EVQLLESGGGLVQPGGSLRLSCAASGFTFSKYFMFWVRQAPGKGLEWVSVTSPSGGMTRYADSVKGRFTISRDNSKNTLYLQMNSLRAEDTAVYYCARVGYGGNSDYWGQGTLVTVSS
VL: DIQMTQSPSSVSASVGDRLTIICRASQDINRWLAWYQQTPGNAPKLLIHSATSLQSGVPSRFSGSGSGTDFTLTINSLQPEDFATYYCQQADSFPLTFGGGTKVEIK
B17: the fold difference in affinity vs original in assay [1] and in assay [2] was 0.86 fold each time.

B18: C5A (XPA23) VH S52T (antibody, V domains shown)
VH: EVQLLESGGGLVQPGGSLRLSCAASGFTFSKYFMFWVRQAPGKGLEWVSVITPSGGMTRYADSVKGRFTISRDNSKNTLYLQMNSLRAEDTAVYYCARVGYGGNSDYWGQGTLVTVSS
VL: DIQMTQSPSSVSASVGDRLTIICRASQDINRWLAWYQQTPGNAPKLLIHSATSLQSGVPSRFSGSGSGTDFTLTINSLQPEDFATYYCQQADSFPLTFGGGTKVEIK
B18: the fold difference in affinity vs original in assay [1] and in assay [2] was 0.04 fold throughout.

B19: C5A (XPA23) VH V50T (antibody, V domains shown)
VH: EVQLLESGGGLVQPGGSLRLSCAASGFTFSKYFMFWVRQAPGKGLEWVSTISPSGGMTRYADSVKGRFTISRDNSKNTLYLQMNSLRAEDTAVYYCARVGYGGNSDYWGQGTLVTVSS
VL: DIQMTQSPSSVSASVGDRLTIICRASQDINRWLAWYQQTPGNAPKLLIHSATSLQSGVPSRFSGSGSGTDFTLTINSLQPEDFATYYCQQADSFPLTFGGGTKVEIK
Take B19: the fold difference in affinity vs original in assay [1] and in assay [2] was 0.03 fold in each case.

The values are drawn from patent US20110118447A1.
